Where no end group is shown, it is not given here. 5‑FAM = fluorescein amidite
Legend:
[1] = biological target: T1, receptor for advanced glycation end products (RAGE) (human, UniProt Q15109 23-404); experiment: Uptake by hCMEC/D3 cells after RAGE siRNA knock-down, FACS and fluorescence microscopy
T1 construct: whole, on cells; Endogenous receptor on hCMEC/D3 cells; No purified receptor was used; also called RAGE receptor

[2] = biological target: T2, transferrin receptor (TFRC) (human, UniProt P02786 1-760); experiment: Uptake by hCMEC/D3 cells after TFRC siRNA knock-down, FACS and fluorescence microscopy
T2 construct: whole, on cells; Endogenous receptor on hCMEC/D3 cells; No purified receptor was used
T2 sequence (P02786 whole entry): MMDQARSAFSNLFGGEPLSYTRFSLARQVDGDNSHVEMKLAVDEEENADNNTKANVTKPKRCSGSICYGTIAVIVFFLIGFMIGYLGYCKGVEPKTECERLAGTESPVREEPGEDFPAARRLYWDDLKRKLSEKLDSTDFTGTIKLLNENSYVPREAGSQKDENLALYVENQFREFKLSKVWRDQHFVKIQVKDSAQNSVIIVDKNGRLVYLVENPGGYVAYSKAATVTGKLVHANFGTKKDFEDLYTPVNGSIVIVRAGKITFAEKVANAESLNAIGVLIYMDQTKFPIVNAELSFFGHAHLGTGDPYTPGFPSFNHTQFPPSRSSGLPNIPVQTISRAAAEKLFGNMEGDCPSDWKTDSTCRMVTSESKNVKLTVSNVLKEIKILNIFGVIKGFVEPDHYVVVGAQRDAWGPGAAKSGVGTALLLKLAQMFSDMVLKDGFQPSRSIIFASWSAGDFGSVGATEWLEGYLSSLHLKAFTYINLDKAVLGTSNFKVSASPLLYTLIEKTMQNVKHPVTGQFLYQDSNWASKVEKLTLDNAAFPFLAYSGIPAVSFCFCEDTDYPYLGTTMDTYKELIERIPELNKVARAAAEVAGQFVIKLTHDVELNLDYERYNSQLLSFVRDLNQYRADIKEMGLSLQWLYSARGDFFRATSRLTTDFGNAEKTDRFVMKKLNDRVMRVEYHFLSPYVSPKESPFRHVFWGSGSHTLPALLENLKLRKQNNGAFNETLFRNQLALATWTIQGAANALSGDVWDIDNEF
Experimental: Cell nucleus stained with Hoechest 33342, Insert bars=50 μm.
The commercial transfection reagent siPORT Amine/TFRC siRNA complex was incubated for 72 h in hCMEC/D3 cells including an unspecific siRNA (siControl) as control.

T1 sequence (Q15109 23-404): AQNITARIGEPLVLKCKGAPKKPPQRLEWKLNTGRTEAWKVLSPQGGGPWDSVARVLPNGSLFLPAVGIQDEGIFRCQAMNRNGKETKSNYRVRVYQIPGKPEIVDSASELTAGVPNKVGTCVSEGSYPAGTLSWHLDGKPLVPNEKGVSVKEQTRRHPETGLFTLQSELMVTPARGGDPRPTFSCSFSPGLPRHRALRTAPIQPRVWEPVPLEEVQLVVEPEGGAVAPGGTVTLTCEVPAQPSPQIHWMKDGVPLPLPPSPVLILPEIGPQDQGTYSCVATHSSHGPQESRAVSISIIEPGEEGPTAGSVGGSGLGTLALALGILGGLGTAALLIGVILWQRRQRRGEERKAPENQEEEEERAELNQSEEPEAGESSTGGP

- binding result [1]: binds
- binding result [2]: binds
B1: FAM-CGY peptide (5-FAM-Cys-Gly-Tyr-Arg-Pro-Val-His-Asn-Ile-Arg-Gly-His-Trp-Ala-Pro-Gly) (peptide)
peptide: {5‑FAM}-CGYRPVHNIRGHWAPG
modifications: also: forms assemblies with intermolecular Cys disulfides
notes: Synthetic peptide conjugate; also called FAM-CGY nanoparticles; FAM-CGY peptidic nanoparticles

Reference: US20200069813A1 (S M DISCOVERY GROUP, published 2020)
